Legend:
[1] = Stability of PDGF in the depot formulations (rpHPLC, SEC); assay type: physicochemical; conditions: day 0
Experimental: Depot gel PDGF formulations were stored for different periods of time at 5, 25 and 40° C., respectively. At predetermined time points, the depot gel PDGF-BB formulation (0.3 ml) was treated with a cooled organic solvent (a 50/50 mixture of methylene chloride/acetone, at 5° C., 3×3.0 ml). The resulting residual PDGF-BB was dissolved in a PBS buffer (2 ml, pH 7.4) and the purity of the PDGF was analyzed by both reverse phase HPLC (rpHPLC) and size exclusion chromatography (SEC) HPLC. FIGS. 18-20 illustrate the stability of PDGF (% monomer by SEC) in the various depot formulations, including those of the present invention, as a function of time at 5° C. (FIG. 18), 25° C. (FIG. 19) and 40° C. (FIG. 20), respectively. Table 12 summarizes the chemical stability of PDGF tested by rpHPLC in the various depot formulations, including those of the present invention, as a function of time at 5° C., 25° C. and 40° C., respectively. […] Sucrose has a significant stabilizing effect on the various depot formulations of the present invention.

[2] = Preliminary stability of PDGF preformulations in the gel vehicle (SEC, rpHPLC); assay type: physicochemical; conditions: mixed into gel vehicle PLGA RG502/BB/BA 40/45/15, stored at 5° C. for 1 day
Experimental: All lyophilized protein formulations as listed in Tables 8 and 9, were mixed into a gel vehicle with the composition of PLGA RG502/Benzyl Benzoate (BB)/benzyl alcohol (BA) of 40/45/15 with the loading of the protein formulation about 10 wt %. After being stored at 5° C. for 1 day, the mixtures were extracted with an organic solvent mixture of methylene chloride and acetone (ratio of 50/50) as described in the example 15 above. The purity of the PDGF-BB was analyzed by both reverse phase HPLC (rpHPLC) and size exclusion chromatography (SEC). In general, no distinguishable degradation of the PDGF-BB was found in the PDGF-BB formulation incorporated with the excipients as described in the example 18 and mixed with the gel vehicle of the present invention.

## Bulk PDGF: PDGF-BB bulk solution, i.e., aqueous solution of PDGF in acetate buffer
[1]
  RP-HPLC Other Peak(s): 0 % Peak Area
  RP-HPLC Peak at (RRT = 0.93): 11.1 % Peak Area
  RP-HPLC Peak at (RRT = 1.00): 87.7 % Peak Area
  RP-HPLC Peak at (RRT = 1.09): 1.2 % Peak Area
[2]
  % PDGF dimer by SEC: 0.73%
  % PDGF monomer by SEC: 99.27%
  % other peaks by rp-HPLC: 0.0%
  % peak at RRT = 0.93 by rp-HPLC: 11.1%
  % peak at RRT = 1.00 by rp-HPLC: 87.7%
  % peak at RRT = 1.10 by rp-HPLC: 1.2%

— patent US7829109B2, “Catheter injectable depot compositions and uses thereof” (Durect Corporation, priority 2001, dated 2010)
